Reference: patent publication US20180128830A1, “DETECTION OF HUMAN CYTOMEGALOVIRUS IN BREAST CANCER” (priority 2015, published 2018)
Values joined by “and” are separate entries in the source; they are usually repeats but may differ in a detail not shown here. Equal values may be shown once.

Legend:
uPAR = uPAR ELISA on culture supernatants; format: cell-based, human; conditions: 10 ng/ml
Procedure: DuoSet ELISA kits (R&D Systems) were used to quantify uPAR, PAI-1, and MMP-3. For uPAR and PAI-1 measurement, MDA cells were seeded in triplicate in 96-well plate at 5.0×10^4 cell/mL density with complete L-15 media and treated with 10 ng/mL of either cmvIL-10 or hIL-10 for the indicated times and supernatants were collected daily. The ELISA was carried out on supernatants according to manufacturer's instructions using and following the addition of substrate and stop solution, absorbance of the plate was measured at 450 nm using a Dynex Opsys MR microplate reader. Sample concentrations were interpolated from a standard curve using linear regression analysis. For cell-associated MMP-3, MDA cells were seeded in 96-well plates and treated with cmvIL-10 as above. Cells were treated with cell lysis buffer (150 mM NaCl, 20 mM HEPES, 0.5% Triton-X-100, 1.0 mM NaOV4, 1.0 mM EDTA, 0.1% NaN3) supplemented with 1× protease inhibitors (Calbiochem, EMD Chemicals, San Diego Calif.) and were collected daily for the indicated time points. The lysates were evaluated for MMP-3 according to the manufacturer's instructions (R&D Systems).

Stat3 = assay: Western blot for Stat3 phosphorylation in MDA-MB-231 cells; format: cell-based, human; conditions: 100 ng/ml, 15 min
Procedure: For western blotting, cells were treated with 100 ng/ml cmvIL-10, hIL-10, IFNγ or PBS for 15 min, then harvested into cell lysis buffer (150 mM NaCl, 20 mM HEPES, 0.5% Triton-X-100, 1 mM NaOV4, 1 mM EDTA, 0.1% NaN3). Lysates were clarified, proteins were separated via SDS-PAGE, and then transferred to a nitrocellulose membrane. Then membrane was incubated in blocking solution (5% milk+1×TBS-T) for 1 hr, then probed with primary antibody at a 1:1000 dilution (total Stat3 or pStat3, total Stat1 or pStat1) in blocking solution overnight at 4° C. After washing, the membranes were incubated with a 1:2000 dilution of appropriate AP-conjugated secondary antibody and bands were detected using Western Blue stabilized AP substrate (Promega, Madison, Wis.). For analysis of secreted proteins, supernatants were collected at various time points, analyzed by SDS-PAGE and then immunoblotted as above for cmvIL-10, hIL-10, or serpin E1/PAI.

MDA-MB-231 cells = assay: Transcriptional profiling, Human Tumor Metastasis RT2 Profiler PCR Array; format: cell-based; conditions: 100 ng/mL, 5 hrs
Procedure: RNA was harvested from 10×10^6 MDA-MB-231 cells that were mock treated or treated with 100 ng/mL cmvIL-10 or hIL-10 for 5 hrs using the RNeasy Midi Kit and RNAse-Free DNase set (Qiagen, Valencia, Calif.). From the isolated RNA, cDNA was prepared using the RT^2 First Strand Kit (SA Biosciences, Frederick, Md.) and subsequently loaded into a 96-well breast cancer metastasis profiler PCR array (PAHS-028ZD) with system RT^2 SYBR Green Mastermix (SA Biosciences). The plates were run using the CFX96 Real-Time system cycler (BioRad, Hercules, Calif.) with the following amplification program: 95° C. for 10 min, 95° C. for […] with a slow ramp rate for 1.0 c/sec and 60° C. for 1 min. The data from three biological replicates for each treatment was analyzed by the ΔΔCT method according to manufacturer's instructions using the RT^2 profiler PCR array data analysis program located on the SABiosciences web portal and is reported as fold change relative to control.

B1: cmvIL-10 (protein)
chain: ATTTTIKNTKPQCRPEDYATRLQDLRVTFHRVKPTLQREDDYSVWLDGTVVKGCWGCSVMDWLLRRYLEIVFPAGDHVYPGLKTELHSMRSTLESIYKDMRQCPLLGCGDKSVISRLSQEAERKSDNGTRKGLSELDTLFSRLEEYLHSRK
uPAR protein levels (uPAR): elevated
83 kD band of phosphorylated Stat3 (pStat3) (Stat3): detected
Fold Change vs. Mock, ACTB (MDA-MB-231 cells; ACTB mRNA): 1.0986 fold
Fold Change vs. Mock, APC (MDA-MB-231 cells; APC mRNA): 0.9681 fold
Fold Change vs. Mock, B2M (MDA-MB-231 cells; B2M mRNA): 0.9597 fold
Fold Change vs. Mock, BRMS1 (MDA-MB-231 cells; BRMS1 mRNA): 0.8029 fold
Fold Change vs. Mock, CCL7 (MDA-MB-231 cells; CCL7 mRNA): 0.8113 fold
Fold Change vs. Mock, CD44 (MDA-MB-231 cells; CD44 mRNA): 1.1473 fold
Fold Change vs. Mock, CD82 (MDA-MB-231 cells; CD82 mRNA): 0.6917 fold
Fold Change vs. Mock, CDH1 (MDA-MB-231 cells; CDH1 mRNA): 0.6288 fold
CDH6 fold change expressed as negative fold (down-regulation) (MDA-MB-231 cells; CDH6 mRNA): −1.23 fold
Fold Change vs. Mock, CDH6 (MDA-MB-231 cells; CDH6 mRNA): 0.811 fold and 0.8113 fold
Fold Change vs. Mock, CDH11 (MDA-MB-231 cells; CDH11 mRNA): 0.9033 fold
Fold Change vs. Mock, CDKN2A (MDA-MB-231 cells; CDKN2A mRNA): 0.8113 fold
Fold Change vs. Mock, CHD4 (MDA-MB-231 cells; CHD4 mRNA): 0.8970 fold
Fold Change vs. Mock, COL4A2 (MDA-MB-231 cells; COL4A2 mRNA): 1.0929 fold
Fold Change vs. Mock, CST7 (MDA-MB-231 cells; CST7 mRNA): 0.7149 fold
Fold Change vs. Mock, CTBP1 (MDA-MB-231 cells; CTBP1 mRNA): 0.6245 fold
Fold Change vs. Mock, CTNNA1 (MDA-MB-231 cells; CTNNA1 mRNA): 0.8816 fold
Fold Change vs. Mock, CTSK (MDA-MB-231 cells; CTSK mRNA): 0.8043 fold
Fold Change vs. Mock, CTSL1 (MDA-MB-231 cells; CTSL1 mRNA): 0.8212 fold
Fold Change vs. Mock, CXCL12 (MDA-MB-231 cells; CXCL12 mRNA): 0.8113 fold
Fold Change vs. Mock, CXCR4 (MDA-MB-231 cells; CXCR4 mRNA): 0.8084 fold
Fold Change vs. Mock, DENR (MDA-MB-231 cells; DENR mRNA): 0.9816 fold
Fold Change vs. Mock, EPHB2 (MDA-MB-231 cells; EPHB2 mRNA): 0.6693 fold
Fold Change vs. Mock, ETV4 (MDA-MB-231 cells; ETV4 mRNA): 0.5418 fold
Fold Change vs. Mock, EWSR1 (MDA-MB-231 cells; EWSR1 mRNA): 0.9465 fold
Fold Change vs. Mock, FAT1 (MDA-MB-231 cells; FAT1 mRNA): 1.2752 fold
Fold Change vs. Mock, FGFR4 (MDA-MB-231 cells; FGFR4 mRNA): 0.5362 fold
Fold Change vs. Mock, FLT4 (MDA-MB-231 cells; FLT4 mRNA): 0.8113 fold
Fold Change vs. Mock, FN1 (MDA-MB-231 cells; FN1 mRNA): 1.1044 fold
Fold Change vs. Mock, FXYD5 (MDA-MB-231 cells; FXYD5 mRNA): 0.9400 fold
Fold Change vs. Mock, GAPDH (MDA-MB-231 cells; GAPDH mRNA): 0.9335 fold
Fold Change vs. Mock, GNRH1 (MDA-MB-231 cells; GNRH1 mRNA): 0.9970 fold
Fold Change vs. Mock, HGF (MDA-MB-231 cells; HGF mRNA): 0.8113 fold
Fold Change vs. Mock, HPRT1 (MDA-MB-231 cells; HPRT1 mRNA): 1.2796 fold
Fold Change vs. Mock, HPSE (MDA-MB-231 cells; HPSE mRNA): 0.8620 fold
Fold Change vs. Mock, HRAS (MDA-MB-231 cells; HRAS mRNA): 1.0075 fold
Fold Change vs. Mock, HTATIP2 (MDA-MB-231 cells; HTATIP2 mRNA): 0.7439 fold
Fold Change vs. Mock, IGF1 (MDA-MB-231 cells; IGF1 mRNA): 0.8635 fold
Fold Change vs. Mock, IL1B (MDA-MB-231 cells; IL1B mRNA): 0.6266 fold
Fold Change vs. Mock, IL18 (MDA-MB-231 cells; IL18 mRNA): 0.7362 fold
Fold Change vs. Mock, ITGA7 (MDA-MB-231 cells; ITGA7 mRNA): 0.561 fold and 0.5609 fold
ITGA7 fold change expressed as negative fold (down-regulation) (MDA-MB-231 cells; ITGA7 mRNA): −1.78 fold
Fold Change vs. Mock, ITGB3 (MDA-MB-231 cells; ITGB3 mRNA): 1.0198 fold
Fold Change vs. Mock, KISS1R (MDA-MB-231 cells; KISS1R mRNA): 0.8113 fold
Fold Change vs. Mock, KISS1 (MDA-MB-231 cells; KISS1 mRNA): 1.1394 fold
Fold Change vs. Mock, KRAS (MDA-MB-231 cells; KRAS mRNA): 1.0304 fold
Fold Change vs. Mock, MCAM (MDA-MB-231 cells; MCAM mRNA): 0.768 fold and 0.7688 fold
MCAM fold change expressed as negative fold (down-regulation) (MDA-MB-231 cells; MCAM mRNA): −1.32 fold
Fold Change vs. Mock, MDM2 (MDA-MB-231 cells; MDM2 mRNA): 0.9531 fold
Fold Change vs. Mock, MET (MDA-MB-231 cells; MET mRNA): 0.9833 fold
Fold Change vs. Mock, METAP2 (MDA-MB-231 cells; METAP2 mRNA): 1.1295 fold
Fold Change vs. Mock, MGAT5 (MDA-MB-231 cells; MGAT5 mRNA): 1.1795 fold
Fold Change vs. Mock, MMP2 (MDA-MB-231 cells; MMP2 mRNA): −1.1101 fold
Fold Change vs. Mock, MMP3 (MDA-MB-231 cells; MMP3 mRNA): 2.75 fold and 2.7478 fold
Fold Change vs. Mock, MMP7 (MDA-MB-231 cells; MMP7 mRNA): 0.9416 fold
Fold Change vs. Mock, MMP9 (MDA-MB-231 cells; MMP9 mRNA): 1.0233 fold
Fold Change vs. Mock, MMP10 (MDA-MB-231 cells; MMP10 mRNA): 0.5980 fold
Fold Change vs. Mock, MMP11 (MDA-MB-231 cells; MMP11 mRNA): 0.7026 fold
Fold Change vs. Mock, MMP13 (MDA-MB-231 cells; MMP13 mRNA): 0.8127 fold
Fold Change vs. Mock, MTA1 (MDA-MB-231 cells; MTA1 mRNA): 0.7388 fold
MTSS1 fold change expressed as negative fold (down-regulation) (MDA-MB-231 cells; MTSS1 mRNA): −3.28 fold
Fold Change vs. Mock, MYC (MDA-MB-231 cells; MYC mRNA): 0.8113 fold
Fold Change vs. Mock, MYCL1 (MDA-MB-231 cells; MYCL1 mRNA): 0.5260 fold
Fold Change vs. Mock, NF2 (MDA-MB-231 cells; NF2 mRNA): 1.0742 fold
Fold Change vs. Mock, NME1 (MDA-MB-231 cells; NME1 mRNA): 1.0358 fold
Fold Change vs. Mock, NME4 (MDA-MB-231 cells; NME4 mRNA): 0.8226 fold
Fold Change vs. Mock, NR4A3 (MDA-MB-231 cells; NR4A3 mRNA): 0.5389 fold
Fold Change vs. Mock, PLAUR (MDA-MB-231 cells; PLAUR (uPAR) mRNA): 1.59 fold and 1.5891 fold
Fold Change vs. Mock, PNN (MDA-MB-231 cells; PNN mRNA): 1.3088 fold
Fold Change vs. Mock, PTEN (MDA-MB-231 cells; PTEN mRNA): 0.7809 fold
Fold Change vs. Mock, RB1 (MDA-MB-231 cells; RB1 mRNA): 0.9548 fold
Fold Change vs. Mock, RORB (MDA-MB-231 cells; RORB mRNA): 0.6953 fold
Fold Change vs. Mock, RPLP0 (MDA-MB-231 cells; RPLP0 mRNA): 1.0376 fold
Fold Change vs. Mock, RPSA (MDA-MB-231 cells; RPSA mRNA): 0.9631 fold
Fold Change vs. Mock, SERPINE1 (MDA-MB-231 cells; SERPINE1 (PAI-1) mRNA): 2.68 fold and 2.6818 fold
Fold Change vs. Mock, SET (MDA-MB-231 cells; SET mRNA): 0.9664 fold
Fold Change vs. Mock, SMAD2 (MDA-MB-231 cells; SMAD2 mRNA): 0.6869 fold
Fold Change vs. Mock, SMAD4 (MDA-MB-231 cells; SMAD4 mRNA): 0.8384 fold
Fold Change vs. Mock, SRC (MDA-MB-231 cells; SRC mRNA): 0.5297 fold
Fold Change vs. Mock, SSTR2 (MDA-MB-231 cells; SSTR2 mRNA): 0.5556 fold
Fold Change vs. Mock, SYK (MDA-MB-231 cells; SYK mRNA): 0.8590 fold
Fold Change vs. Mock, TCF20 (MDA-MB-231 cells; TCF20 mRNA): 0.7823 fold
Fold Change vs. Mock, TGEB1 (MDA-MB-231 cells; TGEB1 (Transforming growth factor, beta 1) mRNA): 0.7173 fold
Fold Change vs. Mock, TIMP2 (MDA-MB-231 cells; TIMP2 mRNA): 0.7596 fold
Fold Change vs. Mock, TIMP3 (MDA-MB-231 cells; TIMP3 mRNA): 0.8155 fold
Fold Change vs. Mock, TIMP4 (MDA-MB-231 cells; TIMP4 mRNA): 0.7324 fold
Fold Change vs. Mock, TNFSF10 (MDA-MB-231 cells; TNFSF10 mRNA): 0.8169 fold
Fold Change vs. Mock, TP53 (MDA-MB-231 cells; TP53 mRNA): 0.6180 fold
Fold Change vs. Mock, TRPM1 (MDA-MB-231 cells; TRPM1 mRNA): 0.8113 fold
Fold Change vs. Mock, TSHR (MDA-MB-231 cells; TSHR mRNA): 0.8113 fold
Fold Change vs. Mock, VEGFA (MDA-MB-231 cells; VEGFA mRNA): 0.554 fold and 0.5541 fold
VEGFA fold change expressed as negative fold (down-regulation) (MDA-MB-231 cells; VEGFA mRNA): −1.80 fold
